Measured values: US20180327501A1 (CARSGEN THERAPEUTICS, published 2018)
Positions count from the first letter of the chain named.

B1: scFv-Y022-Fc (Fc fusion)
chain: DIQMTQSPSSLSASVGDRVTITCHASQDINVNIGWLQQKPGKAFKGLIYHGKNLEDGVPSRFSGSGSGTDFTLTISSLQPEDFATYYCNQYENIPLTFGQGTKVEIKRGGGGSGGGGSGGGGSDVQLVESGGGLVQPGGSLRLSCAVSGYSITSDYAWNWIRQAPGKGLEWLGYISYRGRTQYNPSLKSRISITRDNSKNTFFLQLNSLRAEDTAVYYCARMGKNWDYWGQGTLVTVSS
notes: Expressed in HEK-293F cells, protein A purified; also called single chain antibody Y022; V5-scFv-Y022-Fc; not shown: Fc fragment of human IgG1 from vector pCMV-V5-Fc, fused downstream of the multiple cloning site; limits and junction res
B2: single chain antibody Y022 displayed on phage (scFv)
scFv: B1 chain
notes: 12 mutations against 7B3; not shown: fusion to M13 phage coat protein from phagemid pCANTAB 5E (pCantab 5E-Y022)
B3: M14/CD3 single chain bifunctional antibody (bispecific antibody, part only; not given: linker, anti-CD3 scFv, His tag, not shown: another chain or arm of the molecule)
chain: B1 chain with V31S, I94N, L96I, Q182N, M222L, K224R, N225G, W226F, D227R
B4: S29/CD3 single chain bifunctional antibody (bispecific antibody, part only; not given: linker, anti-CD3 scFv, His tag, not shown: another chain or arm of the molecule)
chain: B1 chain with I94F, Q182R, M222L, K224R, N225G, W226F, D227R
B5: S7/CD3 single chain bifunctional antibody (bispecific antibody, part only; not given: linker, anti-CD3 scFv, His tag, not shown: another chain or arm of the molecule)
chain: B1 chain with K52T, I94N, L96I, Q182S, M222L, K224R, N225G, W226F, D227R
B6: M25/CD3 single chain bifunctional antibody (bispecific antibody, part only; not given: linker, anti-CD3 scFv, His tag, not shown: another chain or arm of the molecule)
chain: B1 chain with Q182R, M222L, K224R, N225G, W226F, D227R
B7: S17/CD3 single chain bifunctional antibody (bispecific antibody, part only; not given: linker, anti-CD3 scFv, His tag, not shown: another chain or arm of the molecule)
chain: B1 chain with V31T, I94N, M222L, K224R, N225G, W226F, D227R
B8: S23/CD3 single chain bifunctional antibody (bispecific antibody, part only; not given: linker, anti-CD3 scFv, His tag, not shown: another chain or arm of the molecule)
chain: B1 chain with A43S, I94N, Q182R, M222L, K224R, N225G, W226F, D227R
B9: S8/CD3 single chain bifunctional antibody (bispecific antibody, part only; not given: linker, anti-CD3 scFv, His tag, not shown: another chain or arm of the molecule)
chain: B1 chain with A43S, I94N, L96I, Q182S, M222L, K224R, N225G, W226F, D227R
B10: M15/CD3 single chain bifunctional antibody (bispecific antibody, part only; not given: linker, anti-CD3 scFv, His tag, not shown: another chain or arm of the molecule)
chain: B1 chain with I94N, L96I, Q182S, M222L, K224R, N225G, W226F, D227R
B11: M26/CD3 single chain bifunctional antibody (bispecific antibody, part only; not given: linker, anti-CD3 scFv, His tag, not shown: another chain or arm of the molecule)
chain: B1 chain with M222L, K224R, N225G, W226F, D227R
B12: S22/CD3 single chain bifunctional antibody (bispecific antibody, part only; not given: linker, anti-CD3 scFv, His tag, not shown: another chain or arm of the molecule)
chain: B1 chain with K52T, I94N, Q182R, M222L, K224R, N225G, W226F, D227R
B13: antibody 7B3, single chain antibody with carboxy-terminal 6xhistidine, produced in E. coli (scFv)
scFv: DIQMTQSPSSLSASVGDRVTITCHASQDINSNIGWLQQKPGKAFKGLIYHGKNLEDGVPSRFSGSGSGTDFTLTISSLQPEDFATYYCVQYAQFPYTFGQGTKVEIKRGGGGSGGGGSGGGGSDVQLVESGGGLVQPGGSLRLSCAVSGYSITSDYAWNWIRQAPGKGLEWLGYISYRGRTSYNPSLKSRISITRDNSKNTFFLQLNSLRAEDTAVYYCARLGRGFRYWGQGTLVTVSSHHHHHH
B14: antibody Y022, single chain antibody with carboxy-terminal 6xhistidine, produced in E. coli (scFv)
scFv: DIQMTQSPSSLSASVGDRVTITCHASQDINVNIGWLQQKPGKAFKGLIYHGKNLEDGVPSRFSGSGSGTDFTLTISSLQPEDFATYYCNQYENIPLTFGQGTKVEIKRGGGGSGGGGSGGGGSDVQLVESGGGLVQPGGSLRLSCAVSGYSITSDYAWNWIRQAPGKGLEWLGYISYRGRTQYNPSLKSRISITRDNSKNTFFLQLNSLRAEDTAVYYCARMGKNWDYWGQGTLVTVSSHHHHHH

Molecular target: T1, EGFRvIII on U87-EGFRvIII cells (human, UniProt P00533 25-1210)
T1 construct: whole, on cells; EGFRvIII is a deletion variant of it; also called U87MG-EGFRvIII; mutant human EGFR
Assay: FACS on U87-EGFRvIII cells, 20 µg/ml
Protocol: 2) Cells were digested with 10 mM EDTA and cells were collected by centrifugation at 200 g for 5 min. Cells were resuspended in 1% phosphate buffered saline (NBS PBS) containing calf serum at a concentration of 1×10⁶ to 1×10⁷/mL, and added in a flow tube in an amount of 100 μl/tube.
And PBS was used as a negative control. The final concentration of antibody was 20 μg/ml, 100 μl was added to each tube and placed in an ice bath for 45 minutes.

Binder	binding result
B1	binds

Molecular target: T2, N1N2 (control protein) (M13 phage, UniProt P69168 19-235, limits assumed)
T2 construct: domain: N1N2 domain; Negative control protein in the phage ELISA
Assay: single phage ELISA, 100 ng/well coated protein
Protocol: (§1) Each well was blocked with PBST containing 2% BSA (w/v). The wells were then washed with PBST for three times. Then, each phage solution prepared above was added to each well of the plate at 100 μl/well. After incubation for 2 hours at 37° C., it was washed for three times with PBST. To detect bound phage, anti-M13 antibody […] conjugate (purchased from GE Healthcare) was diluted at 1:5000 in PBST and 100 μl was added to each well. After incubating at 37° C. for 1 hour, the wells were rinsed for three times with PBST and then rinsed for three times with PBS. Finally, 50 μl of TMB substrate was added into the wells and developed for 10 minutes at room temperature, followed by addition of 50 μl of 2M H₂SO₄ per well to stop the color reaction. Extinction values were measured at 450 nm with an enzyme-linked immunosorbent (Bio-Rad).
(§2) All of the altered amino acid positions include S31 in the light chain CDR1 region, V89, A92, Q93, F94 and Y96 in the light chain CDR3 region, 5182 in the heavy chain CDR2 region, L222, R224, G225, F226 and R227 in the heavy chain CDR3 region.

T2 sequence (P69168 19-235 limits assumed): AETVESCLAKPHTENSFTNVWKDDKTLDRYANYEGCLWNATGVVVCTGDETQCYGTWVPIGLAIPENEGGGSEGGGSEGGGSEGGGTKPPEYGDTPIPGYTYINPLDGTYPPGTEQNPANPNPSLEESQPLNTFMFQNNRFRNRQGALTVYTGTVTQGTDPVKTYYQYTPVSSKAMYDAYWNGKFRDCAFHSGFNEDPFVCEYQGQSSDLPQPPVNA

Binder	binding result
B2	no binding

Molecular target: T3, BSA (bovine serum albumin) (bovine, UniProt P02769 25-607)
T3 construct: Negative control protein in the phage ELISA
Assay: single phage ELISA, 100 ng/well coated protein
Protocol: as §1, §2

T3 sequence (P02769 25-607 limits assumed): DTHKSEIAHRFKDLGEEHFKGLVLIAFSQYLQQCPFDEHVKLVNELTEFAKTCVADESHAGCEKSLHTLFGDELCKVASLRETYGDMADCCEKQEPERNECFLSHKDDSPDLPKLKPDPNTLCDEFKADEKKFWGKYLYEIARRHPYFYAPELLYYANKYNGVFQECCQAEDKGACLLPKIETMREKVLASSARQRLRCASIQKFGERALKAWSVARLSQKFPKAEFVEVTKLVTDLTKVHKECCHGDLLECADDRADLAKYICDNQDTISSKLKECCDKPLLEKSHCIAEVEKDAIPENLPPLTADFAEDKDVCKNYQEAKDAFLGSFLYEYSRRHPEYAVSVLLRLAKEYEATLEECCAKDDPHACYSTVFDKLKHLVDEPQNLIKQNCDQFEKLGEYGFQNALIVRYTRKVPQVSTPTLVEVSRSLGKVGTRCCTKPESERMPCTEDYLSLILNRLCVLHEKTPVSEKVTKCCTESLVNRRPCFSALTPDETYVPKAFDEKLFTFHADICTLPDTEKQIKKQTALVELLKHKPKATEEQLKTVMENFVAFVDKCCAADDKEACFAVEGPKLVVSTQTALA

Binder	binding result
B2	no binding

Molecular target: EGFR on the cell surface (human) (UniProt P00533)
Assay: FACS on CAL 27 cells, method of Example 9; PBS control 3.11

Binder	mean fluorescence intensity (MFI)
B3	28.4
B4	25.7
B5	27.9
B6	24.1
B7	25
B8	29.7
B9	30
B10	29.4
B11	24.6
B12	24.6

Molecular target: T1, EGFRvIII on U87-EGFRvIII cells
Assay: FACS on U87MG-EGFRvIII cells, method of Example 9; PBS control 1

Binder	mean fluorescence intensity (MFI)
B3	36.5
B4	34.6
B5	42.2
B6	36.5
B7	31.6
B8	32.2
B9	38.5
B10	37.9
B11	41.4
B12	31.3

Molecular target: T4, antigen EGFRvIII (purchased protein) (UniProt P00533 25-645, limits assumed)
T4 construct: also called EGFRvIII antigen; biotin-labeled antigen EGFRvIII
Assay: concentration gradient ELISA, EGFRvIII coated 200 ng/well, anti-His-tag detection, non-linear fit
Protocol: Binding activity of an antibody to antigen EGFRvIII was determined by concentration gradient ELISA assay. For this purpose, the antigen EGFRvIII was diluted with 0.1 M NaHCO₃ (pH 9.6) coating solution and each well was coated with 200 ng at 50 μl/well overnight at 4° C. and blocked with PBST containing 2% (w/v) BSA for 2 hours at room temperature. The plate was then rinsed for three times with PBST. […] After incubation for 2 hours at 37° C., plate was rinsed for three times with PBST followed by adding 100 μl/well of a 1:2000 dilution of mouse anti-His-tag antibody (available from Santa cruz) for 1 hour at 37° C. To test the bound antibody, HRP-labeled goat anti-mouse antibody (purchased from Santa Cruz) was diluted in PBST at a 1:15,000 dilution and 100 μl per well was added and incubated at 37° C. for 1 hour. […] The chromogenic reaction was stopped with 50 μl of 2 M H₂SO₄ per well and extinction value was measured at 450 nm using enzyme-linked immunoassay (Bio-Rad). The absorbance values obtained were evaluated using Sigma Plot software and the binding strength of an antibody was calculated. For this purpose, the extinction value measured in each case was plotted against the corresponding antibody concentration and the resulting curve was fitted using the following non-linear regression.

Binder	Kd [nM]
B13	~22.4
B14	~2.7
